Assay results: patent US20230340159A1 (published 2023)
Numbering of substitutions follows the chain as printed. Blank lines part the entries; values can stand above or below the binder they belong to.

Experiments:
Human Her2 protein = Human Her2 protein (human, UniProt P04626 23-652)
murine HER2 = biological target: T1, murine HER2 (murine, UniProt P70424 23-1256)
T1 chain: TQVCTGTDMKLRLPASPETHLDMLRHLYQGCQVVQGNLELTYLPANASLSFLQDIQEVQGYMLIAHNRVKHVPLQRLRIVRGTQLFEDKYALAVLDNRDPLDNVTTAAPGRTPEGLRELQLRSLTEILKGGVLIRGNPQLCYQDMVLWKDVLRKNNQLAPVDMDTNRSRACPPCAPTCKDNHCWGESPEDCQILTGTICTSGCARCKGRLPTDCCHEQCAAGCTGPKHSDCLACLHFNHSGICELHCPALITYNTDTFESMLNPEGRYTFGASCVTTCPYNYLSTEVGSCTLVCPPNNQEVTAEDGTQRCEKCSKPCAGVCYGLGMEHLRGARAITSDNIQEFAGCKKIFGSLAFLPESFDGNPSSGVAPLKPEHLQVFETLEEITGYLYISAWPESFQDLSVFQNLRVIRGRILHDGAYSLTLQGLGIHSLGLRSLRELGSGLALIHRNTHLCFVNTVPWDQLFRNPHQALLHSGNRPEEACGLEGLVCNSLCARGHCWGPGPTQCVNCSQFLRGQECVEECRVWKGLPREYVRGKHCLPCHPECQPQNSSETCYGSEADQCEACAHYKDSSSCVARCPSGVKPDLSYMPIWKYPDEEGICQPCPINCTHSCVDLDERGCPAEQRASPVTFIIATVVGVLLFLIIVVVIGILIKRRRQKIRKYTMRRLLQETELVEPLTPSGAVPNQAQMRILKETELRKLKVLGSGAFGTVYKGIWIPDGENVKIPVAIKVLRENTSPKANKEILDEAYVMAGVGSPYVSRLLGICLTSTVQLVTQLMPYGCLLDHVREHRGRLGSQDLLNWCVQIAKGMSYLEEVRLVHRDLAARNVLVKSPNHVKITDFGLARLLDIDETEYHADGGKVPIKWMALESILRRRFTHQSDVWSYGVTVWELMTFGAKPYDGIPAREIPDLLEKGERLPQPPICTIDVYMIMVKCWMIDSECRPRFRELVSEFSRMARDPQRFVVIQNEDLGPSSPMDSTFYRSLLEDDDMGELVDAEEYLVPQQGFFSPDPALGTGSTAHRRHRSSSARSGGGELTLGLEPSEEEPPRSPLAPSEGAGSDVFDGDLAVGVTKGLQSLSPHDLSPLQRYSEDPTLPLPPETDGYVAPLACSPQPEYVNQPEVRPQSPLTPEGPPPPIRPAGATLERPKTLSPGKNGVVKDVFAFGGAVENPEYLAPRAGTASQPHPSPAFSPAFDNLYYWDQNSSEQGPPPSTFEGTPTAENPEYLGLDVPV

mouse CA9 protein = mouse CA9 protein (mouse, UniProt Q8VHB5 32-437)
mouse CA9 protein, sequence (Q8VHB5 32-437): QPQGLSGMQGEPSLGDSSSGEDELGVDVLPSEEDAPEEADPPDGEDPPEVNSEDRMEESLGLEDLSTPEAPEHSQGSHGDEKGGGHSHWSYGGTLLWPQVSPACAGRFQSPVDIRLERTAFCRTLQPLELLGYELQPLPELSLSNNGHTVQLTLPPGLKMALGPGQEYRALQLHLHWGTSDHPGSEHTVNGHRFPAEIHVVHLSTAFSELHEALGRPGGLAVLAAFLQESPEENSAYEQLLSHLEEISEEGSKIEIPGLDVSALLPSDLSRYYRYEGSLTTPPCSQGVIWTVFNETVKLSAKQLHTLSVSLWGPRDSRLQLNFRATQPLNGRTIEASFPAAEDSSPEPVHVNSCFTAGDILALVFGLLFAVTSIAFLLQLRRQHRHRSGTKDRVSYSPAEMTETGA

456, sequence (Q8VHB5 32-437): as above

Kd (Human Her2 protein): 22.9 nM
Kd (murine HER2): 122 nM
B1: h1162 Pro1064 (antibody, V domains shown)
VH: QVQLLESGGGLVQPGGSLRLSCAASGRPFSGNAMGWFRQAPGKEREFVAAISWSGDSTYYADSVKGRFTISRDNSKNTLYLQMNSLRAEDTAVYYCAATRSFYSRTYYTRPSDYNYWGPGTLVTVSS

Kd (Human Her2 protein): 21.4 nM
Kd (murine HER2): 54 nM
B2: 1162 Pro1047 (antibody, V domains shown)
VH: B1 VH with L5Q, P14A, S75D, K76E, L79A, R87K, A88P, L122Q

Kd (Human Her2 protein): 6 nM
B3: 1091 Pro1039 (protein)
chain: QVQLQESGGGLVQPGGSLRLSCAASGFTFDDYAMSWVRQAPGKGLEWVSSINWSGTHTDYADSVKGRFTISRDNAKNTLYLQMNSLKSEDSAVYYCVKGWRLTGGYYDSVQGQGTQVTVSS

Kd (Human Her2 protein): 3.1 nM
B4: 1092 Pro1040 (protein)
chain: B3 chain with P14A, G16A, M34L

Kd (Human Her2 protein): 2.5 nM
B5: 1097 Pro1041 (protein)
chain: B3 chain with T28I, S35T, L102H, G104D, G105N, D108A, S109G

Kd (Human Her2 protein): 5.6 nM
B6: 1139 Pro1043 (protein)
chain: QVQLQESGGGLVQPGGSLRLSCAASGFTFDDYAMSWIRQAPGKEMEWVSGINWSGTHTRYADSVKGRFTISRDNAKNTLDLQMNSLISEDTAVYYCARGFAADSRSTRGQGTQVTVSS

Kd (Human Her2 protein): 7.3 nM
B7: h1139 Pro1060 (protein)
chain: B6 chain with Q5V, L11V, Q13R, T78S, D80Y, I87R, S88A, V93L, Q113L

Kd (mouse CA9 protein): 1.4 nM
B8: h456 Pro509 (antibody, V domains shown)
VH: QVQLVESGGGLVQPGGSLRLSCAASGSALIINAMGWYRQAPGKQRELVATVTRSGRTNYADSVKGRFTISRDNSKNTLYLQMNSLRAEDTAVYYCNVALWIADGEYDYWGQGTLVTVSS

Kd (Human Her2 protein): 53.1 nM
B9: 1055 Pro1036 (protein)
chain: QVQLQESGGGLVQPGGSLRLTCEVSGRAISSYAISWFRQAPGEEREFVAAINWSGTHTNYADSVKGRFTISRDNVKNTVYLQMNSLKPEDTATYFCSRGWSVFDPDYRGQGTQVTVSS

Kd (Human Her2 protein): 8.6 nM
B10: 1058 Pro1037 (protein)
chain: B9 chain with P14A, E23A, V24A, N59D, N77R

Kd (Human Her2 protein): 23 nM
B11: 1059 Pro1038 (protein)
chain: B9 chain with E23A, V24A, N59D, V75A, T93V

Kd (Human Her2 protein): 18 nM
Kd (murine HER2): 80 nM
B12: 1159 Pro1045 (antibody, V domains shown)
VH: QVQLQESGGGLVQAGGSLRLSCATSGRTFSSLAMGWFRQAPGKERELVAGISWSGSTTYYADSVKGRFAISRDNAKNTVYLQMNSLKPEDTAVYYCAARTSSIATIGREYDYWGQGTQVTVSS

Kd (Human Her2 protein): 106 nM
Kd (murine HER2): 19100 nM
B13: h1159 Pro1062 (antibody, V domains shown)
VH: B12 VH with Q5L, A14P, A75S, V79L, K87R, P88A, Q118L

Kd (Human Her2 protein): 56.7 nM
B14: 1160 Pro1046 (antibody, V domains shown)
VH: QVQLQESGGGLVQAGGSLRLSCAASGRTFSNERLGWFRQAPGKERELVAAIRWSGVIIGYADSVRGRFTISRDNAKSTVYLQMNSLRPEDTAVYFCAADRGVYGTWDYWGQGTQVTVSS

Kd (Human Her2 protein): < 0.01 nM
B15: h1156 Pro1061 (antibody, V domains shown)
VH: QVQLLESGGGLVQPGGSLRLSCAASRNIGSNYAVGWFRQAPGKEREPVAALRWTGSIIGYDDSLRGRFTISKDNSKNTLYLQMNSLKPEDTAVYYCAARILDRSSYDYWGQGTLVTVSS

Kd (Human Her2 protein): 6.6 nM
B16: 1156 Pro1044 (antibody, V domains shown)
VH: B15 VH with L5Q, P14A, R19K, L20V, N74D, S75A, L79V, A92G, L114Q

Kd (Human Her2 protein): 3.8 nM
B17: 1121 Pro1042 (protein)
chain: QVQLQESGGGLVQAGGSLRLSCAASGFIFSDYAMTWVRQAPGKGLEWVSSINWSGTHTNYADSVKGRFTISRDNAKKTLYLQMNSLKSEDTAVYYCARGWMVVPDSTRGQGTQVTVSS

Kd 456: 8.2 nM
B18: mouse CA9 (enzyme)
chain: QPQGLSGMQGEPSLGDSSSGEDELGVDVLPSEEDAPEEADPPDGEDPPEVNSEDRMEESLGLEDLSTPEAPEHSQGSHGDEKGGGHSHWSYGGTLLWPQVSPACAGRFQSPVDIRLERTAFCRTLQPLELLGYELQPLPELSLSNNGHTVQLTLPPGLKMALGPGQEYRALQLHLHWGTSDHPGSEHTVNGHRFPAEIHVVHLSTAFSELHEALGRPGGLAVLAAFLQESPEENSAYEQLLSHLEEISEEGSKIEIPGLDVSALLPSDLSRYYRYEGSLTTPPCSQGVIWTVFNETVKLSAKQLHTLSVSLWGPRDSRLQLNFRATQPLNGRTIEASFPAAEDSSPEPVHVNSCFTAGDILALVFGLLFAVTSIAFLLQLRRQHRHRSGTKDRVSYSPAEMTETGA
